Assay results published in patent US20230203100A1, “COMPOSITIONS INCLUDING MULTI-AGONIST PEPTIDES AND METHODS OF MANUFACTURE AND USE” (Pep2Tango Therapeutics Inc., priority 2021, published 2023).
Like-named read-outs stand apart in the source and are kept apart here. Each block holds one molecule with its values, some of them ahead of it. Starred links: 1 amine or outer side, 2 acyl side, 3 side chain; linkers in the order of their positions; H or OH if unused. Non-standard residues stand in square brackets, D forms with d. Groups on a side chain read outwards from the residue. γGlu = O=C(O)[C@H](CCC(=O)[*:2])N[*:1]; C(:O)(CH2)nR3 = not defined here; Aib = CC(C)(N)C(=O)O

What was measured:
[1] = cited from earlier work
[2] = in vivo; cited from earlier work
[3] = molecular target: Human GLP-1 receptor (human) (UniProt P43220)
[4] = molecular target: T1, Human AMY3 receptor (CT/RAMP3) (human, UniProt P30988); test: cell-based or functional assay
T1 sequence 1: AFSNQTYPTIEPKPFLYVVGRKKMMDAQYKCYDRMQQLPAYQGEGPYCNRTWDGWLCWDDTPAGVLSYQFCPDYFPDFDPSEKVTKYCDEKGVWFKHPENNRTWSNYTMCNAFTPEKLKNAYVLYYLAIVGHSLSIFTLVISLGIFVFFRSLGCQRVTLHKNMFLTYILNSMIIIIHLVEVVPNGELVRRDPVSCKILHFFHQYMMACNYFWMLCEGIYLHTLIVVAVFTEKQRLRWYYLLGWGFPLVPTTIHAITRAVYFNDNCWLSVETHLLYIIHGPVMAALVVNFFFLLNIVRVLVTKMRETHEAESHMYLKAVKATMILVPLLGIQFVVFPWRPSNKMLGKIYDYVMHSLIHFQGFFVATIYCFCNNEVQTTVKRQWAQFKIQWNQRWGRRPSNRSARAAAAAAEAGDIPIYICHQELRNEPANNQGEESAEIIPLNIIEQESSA
T1 sequence 2: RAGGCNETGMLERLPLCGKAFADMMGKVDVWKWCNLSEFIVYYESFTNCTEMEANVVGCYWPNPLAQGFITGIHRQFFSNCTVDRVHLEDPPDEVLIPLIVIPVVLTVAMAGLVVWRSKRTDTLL

[5] = molecular target: T2, Human calcitonin receptor (human, UniProt P30988); test: cell-based or functional assay
T2 sequence: T1 sequence 1

Human GIP receptor = molecular target: T3, Human GIP receptor (human, UniProt P48546); test: cell-based or functional assay
T3 sequence: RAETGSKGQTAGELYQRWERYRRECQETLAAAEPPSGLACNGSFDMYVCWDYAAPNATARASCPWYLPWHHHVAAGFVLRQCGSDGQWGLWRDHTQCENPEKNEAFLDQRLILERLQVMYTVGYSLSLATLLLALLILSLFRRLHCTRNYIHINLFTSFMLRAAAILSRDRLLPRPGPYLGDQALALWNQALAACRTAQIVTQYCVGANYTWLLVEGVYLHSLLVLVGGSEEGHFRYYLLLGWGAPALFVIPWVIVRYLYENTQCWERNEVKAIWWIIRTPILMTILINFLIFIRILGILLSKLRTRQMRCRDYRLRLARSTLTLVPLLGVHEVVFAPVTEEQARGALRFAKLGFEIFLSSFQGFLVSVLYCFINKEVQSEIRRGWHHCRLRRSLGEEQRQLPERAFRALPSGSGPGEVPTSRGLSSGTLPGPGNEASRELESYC

Human GLP-1 receptor = Human GLP-1 receptor (human, UniProt P43220); test: cell-based or functional assay
[6] = Acute food intake in lean mice after single s.c. administration; type: in vivo, C57BL/6j male mice; conditions: 50 nmoles/kg single s.c., time period not given, mean±SEM
Description: (§1) Differences were considered statistically significant at p<0.05. Data analysis was carried out with GraphPad software (GraphPad Prism).

[7] = Body weight in lean rats after single s.c. administration; type: in vivo, Sprague Dawley male rats; conditions: mean±SEM
Description: (§2) Sprague Dawley male rats (5 weeks of age) were purchased from Charles River (Spain) and single housed for individual registration of food consumption. […] Rats were fed ad libitum a standard rodent chow diet (CHD) (A04, U8220G10R, SAFE).
(§3) For all experimental groups, food was replaced immediately after lights were turned off.
(§4) Food intake was measured at different time-intervals post-injection up to 72 h using a precision balance. Cumulative food intake was calculated for the indicated time-periods. Body weight was measured at the indicated time-periods. Mean accumulated food intake in each dose group was compared to vehicle and reported as a percentage of mean food intake in the vehicle group, which was defined as 100%.
(§5) All data shown are the mean ± standard error (SEM).

[8] = Acute food intake in lean rats after single s.c. administration; type: in vivo, Sprague Dawley male rats; conditions: 50 nmoles/kg single s.c., mean +/- SEM
Description: as §2, §3, §4, §5

[9] = Blood glucose after single s.c. administration in non-fasted mice; type: in vivo; conditions: 50 nmoles/Kg single s.c., mean±SEM
Description: as §1

Molecule: CC[C@H](C)[C@H](NC(=O)[C@H](CO)NC(=O)[C@H](Cc1ccc(O)cc1)NC(=O)[C@H](CC(=O)O)NC(=O)[C@H](CO)NC(=O)[C@@H](NC(=O)[C@H](Cc1ccccc1)NC(=O)[C@@H](NC(=O)CNC(=O)[C@H](CCC(=O)O)NC(=O)[C@H](C)NC(=O)[C@@H](N)Cc1ccc(O)cc1)[C@@H](C)O)[C@@H](C)CC)C(=O)N[C@@H](C)C(=O)N[C@@H](CCSC)C(=O)N[C@@H](CC(=O)O)C(=O)N[C@@H](CCCCN)C(=O)N[C@H](C(=O)N[C@@H](Cc1c[nH]cn1)C(=O)N[C@@H](CCC(N)=O)C(=O)N[C@@H](CCC(N)=O)C(=O)N[C@@H](CC(=O)O)C(=O)N[C@@H](Cc1ccccc1)C(=O)N[C@H](C(=O)N[C@@H](CC(N)=O)C(=O)N[C@@H](Cc1c[nH]c2ccccc12)C(=O)N[C@@H](CC(C)C)C(=O)N[C@@H](CC(C)C)C(=O)N[C@@H](C)C(=O)N[C@@H](CCC(N)=O)C(=O)N[C@@H](CCCCN)C(=O)NCC(=O)N[C@@H](CCCCN)C(=O)N[C@@H](CCCCN)C(=O)N[C@@H](CC(N)=O)C(=O)N[C@@H](CC(=O)O)C(=O)N[C@@H](Cc1c[nH]c2ccccc12)C(=O)N[C@@H](CCCCN)C(=O)N[C@@H](Cc1c[nH]cn1)C(=O)N[C@@H](CC(N)=O)C(=O)N[C@H](C(=O)N[C@H](C(=O)N[C@@H](CCC(N)=O)C(=O)O)[C@@H](C)O)[C@@H](C)CC)C(C)C)[C@@H](C)CC [GIP, glucose-dependent insulinotropic polypeptide]
half-life of intact GIP ([1]; diabetic subjects): ~5.2 min
half-life of intact GIP ([1]; healthy subjects): approximately 7.3 minutes

Molecule: glucagon-like peptide-1 [GLP-1]
metabolic clearance rate of active GLP-1 [2]: 12 to 13 min

Molecule: Exendin-4 (from UniProt P26349) (ligand)
EC50 (nM), cAMP cell-based agonist assay [3]: 0.007 nM

B1: Peptide No. 10 (peptide)
peptide: Y[Aib]EGTFTSDYSI[Aib]LDKIAQK([γGlu-γGlu-C(:O)(CH2)nR3])AFVQWLLAGGPSCNTATCATQRLANFLVHSSNNFGPILPPTNVGSNTY-NH2
modifications: reading uncertain; also: K* acyl n and R3 not given here, acetate salt, printed as Y-Aib-E-G-T-F-T-S-D-Y-S-I-Aib-L-D-K-I-A-Q-K*-AFVQWLLAGGPSCNTATCATQRLANFLVHSSNNFGPILPPTNVGSNTY-NH2
EC50 (nM), cAMP cell-based agonist assay [4]: 7 nM
EC50 (nM), cAMP cell-based agonist assay [5]: 12.4 nM
EC50 (nM), cAMP cell-based agonist assay (Human GIP receptor): 0.05 nM
EC50 (nM), cAMP cell-based agonist assay (Human GLP-1 receptor): 3.87 nM

B4: (d)YAEGTFTSDYSIALDKIAQQAFVQWLLAGGPSCNTATCVLGRLSQELHRLQTYPRTNTGK*-N-T-Y-NH2 (peptide)
chain: [dY]AEGTFTSDYSIALDKIAQQAFVQWLLAGGPSCNTATCVLGRLSQELHRLQTYPRTNTGKNTY-NH2
modifications: not fully specified (residue 60); also: acyl end R3 and chain length n (12-20) not fixed
notes: K* indicates a linking group, e.g. Lys-γGlu-γGlu—C(═O)(CH2)nR3
Cumulative Food Intake Reduction Relative to Vehicle (%) ([6]; 1st of 4 value columns): 20.5±0.86%
Cumulative Food Intake Reduction Relative to Vehicle (%) ([6]; 2nd of 4 value columns): 25.3±1.93%
Cumulative Food Intake Reduction Relative to Vehicle (%) ([6]; 3rd of 4 value columns): 12.2±4.03%
Cumulative Food Intake Reduction Relative to Vehicle (%) ([6]; 4th of 4 value columns): 2.6±5.68%
Body Weight Reduction (G) 24 h ([7]; 24 h): -9.0 ± 1.01 g
Body Weight Reduction (G) 48 h ([7]; 48 h): -13.0 ± 0.84 g
Body Weight Reduction (G) 72 h ([7]; 72 h): -14.8 ± 1.30 g
Cumulative Food Intake Reduction vs. Vehicle (%) 12 hr. ([8]; cumulative to 12 hr.): 21.8 +/- 2.62%
Cumulative Food Intake Reduction vs. Vehicle (%) 24 hr. ([8]; cumulative to 24 hr.): 31.8 +/- 2.10%
Cumulative Food Intake Reduction vs. Vehicle (%) 48 hr. ([8]; cumulative to 48 hr.): 32.3 +/- 1.66%
Cumulative Food Intake Reduction vs. Vehicle (%) 72 hr. ([8]; cumulative to 72 hr.): 28.7 +/- 1.69%
Food Intake Reduction by Intervals vs. Vehicle (%) 0-12 hr. ([8]; interval 0-12 hr.): 21.8 +/- 2.62%
Food Intake Reduction by Intervals vs. Vehicle (%) 12-24 hr. ([8]; interval 12-24 hr.): 89.1 +/- 3.69%
Food Intake Reduction by Intervals vs. Vehicle (%) 24-48 hr. ([8]; interval 24-48 hr.): 32.8 +/- 3.69%
Food Intake Reduction by Intervals vs. Vehicle (%) 48-72 hr. ([8]; interval 48-72 hr.): 19.4 +/- 2.31%
Blood glucose 30 min ([9]; 30 min after injection): 140.4 ± 8.41 mg/dL
Blood glucose 120 min ([9]; 120 min after injection): 138.4 ± 1.63 mg/dL
Blood glucose Time 0 ([9]; time 0 (baseline)): 159.6 ± 5.78 mg/dL

B5: Peptide No. 15 (peptide)
peptide: Y[dA]EGTFTSDYSIALDKIAQQAFVQWLLAGGPSCNTATCVLGRLSQELHRLQTYPRTNTGK([γGlu-γGlu-C(:O)(CH2)nR3])NTY-NH2
modifications: reading uncertain; also: K* n and R3 not given here, acetate salt
EC50 (nM), cAMP cell-based agonist assay [4]: 1.1 nM
EC50 (nM), cAMP cell-based agonist assay [5]: 0.071 nM
EC50 (nM), cAMP cell-based agonist assay (Human GIP receptor): 0.13 nM
EC50 (nM), cAMP cell-based agonist assay (Human GLP-1 receptor): 5.2 nM

B6: Peptide No. 17 (peptide)
peptide: [dY]AEGTFTSDYSIALDKIAQQAFVQWLLAGGPSCNTATCVLGRLSQELHRLQTYPRTNTGK([γGlu-γGlu-C(:O)(CH2)nR3])NTY-NH2
modifications: reading uncertain; also: K* n and R3 not given here, acetate salt
EC50 (nM), cAMP cell-based agonist assay [4]: 1.3 nM
EC50 (nM), cAMP cell-based agonist assay [5]: 0.1 nM
EC50 (nM), cAMP cell-based agonist assay (Human GIP receptor): 0.81 nM
EC50 (nM), cAMP cell-based agonist assay (Human GLP-1 receptor): 5.7 nM

More lines, now with the values ahead:

EC50 (nM), cAMP cell-based agonist assay [4]: 1.03 nM
EC50 (nM), cAMP cell-based agonist assay [5]: 0.1 nM
EC50 (nM), cAMP cell-based agonist assay (Human GIP receptor): 4.6 nM
EC50 (nM), cAMP cell-based agonist assay (Human GLP-1 receptor): 8.23 nM
B2: Peptide No. 19 (peptide)
peptide: [dY]AEGTFTSDYSIQLDKIAQQAFVQWLLAGGPSCNTATCVLGRLSQELHRLQTYPRTNTGK([γGlu-γGlu-C(:O)(CH2)nR3])NTY-NH2
modifications: reading uncertain; also: K* n and R3 not given here, acetate salt

EC50 (nM), cAMP cell-based agonist assay [4]: 15 nM
EC50 (nM), cAMP cell-based agonist assay [5]: 5.78 nM
EC50 (nM), cAMP cell-based agonist assay (Human GIP receptor): 16 nM
EC50 (nM), cAMP cell-based agonist assay (Human GLP-1 receptor): 42 nM
B3: Peptide No. 22 (peptide)
peptide: [dY]AEGTFTSDYSIQLDKIAQQAFVQWLLAGSGCNTATCATQRLANFLVHSSNNFGPILPPTNVGK([γGlu-γGlu-C(:O)(CH2)nR3])NTY-NH2
modifications: reading uncertain; also: K* n and R3 not given here, acetate salt

EC50 (nM), cAMP cell-based agonist assay [4]: 1.6 nM
EC50 (nM), cAMP cell-based agonist assay [5]: 0.11 nM
EC50 (nM), cAMP cell-based agonist assay (Human GIP receptor): 20 nM
EC50 (nM), cAMP cell-based agonist assay (Human GLP-1 receptor): 43 nM
B7: Peptide No. 21 (peptide)
peptide: [dY]AEGTFTSDYSIQLDKIAQQAFVQWLLAGSGCNTATCVLGRLSQELHRLQTYPRTNTGK([γGlu-γGlu-C(:O)(CH2)nR3])NTY-NH2
modifications: reading uncertain; also: K* n and R3 not given here, acetate salt
